{"source": "paper PMC4081078", "binders": {"B1": {"name": "*G77telo/C38telo (dsDNA)", "DNA 1": "AGCTGAGCATGTCCAGACATGTCCTAGGGTTAGGGTTAGGGTTAGGGTTAGGGTTAGGGTTAGGGTTAGGGTTAGGG", "DNA 2": "TAACCCTAACCCTAGGACATGTCTGGACATGCTCAGCT", "modifications": "phosphorothioate after nt 1 of each strand"}, "B2": {"name": "*G77telo/C50telo (dsDNA)", "DNA 1": "B1 DNA 1", "DNA 2": "TAACCCTAACCCTAACCCTAACCCTAGGACATGTCTGGACATGCTCAGCT", "modifications": "phosphorothioate after nt 1 of each strand"}, "B3": {"name": "*G77telo/C77telo (dsDNA)", "DNA 1": "B1 DNA 1", "DNA 2": "CCCTAACCCTAACCCTAACCCTAACCCTAACCCTAACCCTAACCCTAACCCTAGGACATGTCTGGACATGCTCAGCT", "modifications": "phosphorothioate after nt 1 of each strand"}, "B4": {"name": "b-G68telo/C50telo (dsDNA)", "DNA 1": "AGCTGAGCATGTCCAGACATGTCCTAGGGTTAGGGTTAGGGTTAGGGTTAGGGTTAGGGTTAGGGTTA", "DNA 2": "B2 DNA 2", "modifications": "phosphorothioate after nt 1 of each strand"}}, "key": {"[1]": {"target": "T1, TRF2 (UniProt Q15554 1-542)", "T1 sequence (Q15554 whole entry)": "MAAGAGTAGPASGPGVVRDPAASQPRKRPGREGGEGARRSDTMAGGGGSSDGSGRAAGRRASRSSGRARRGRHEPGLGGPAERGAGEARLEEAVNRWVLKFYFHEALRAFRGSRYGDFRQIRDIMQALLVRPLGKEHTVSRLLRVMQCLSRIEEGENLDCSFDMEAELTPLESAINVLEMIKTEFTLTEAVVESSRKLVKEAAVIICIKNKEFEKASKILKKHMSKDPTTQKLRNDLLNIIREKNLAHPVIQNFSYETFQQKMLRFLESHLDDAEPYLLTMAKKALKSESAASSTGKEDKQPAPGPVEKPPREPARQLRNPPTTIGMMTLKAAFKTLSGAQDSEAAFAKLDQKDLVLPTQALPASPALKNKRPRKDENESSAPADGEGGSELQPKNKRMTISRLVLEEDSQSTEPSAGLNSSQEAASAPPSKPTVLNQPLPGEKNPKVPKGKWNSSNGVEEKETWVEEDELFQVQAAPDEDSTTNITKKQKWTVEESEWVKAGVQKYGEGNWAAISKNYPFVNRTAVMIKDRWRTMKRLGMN", "assay": "EMSA"}, "[2]": {"target": "T1, TRF2", "assay": "EMSA", "remark": "listed apart in the source"}, "[3]": {"target": "TRF2ΔB (UniProt Q15554 87-542)", "sequence (Q15554 87-542, stated change not applied)": "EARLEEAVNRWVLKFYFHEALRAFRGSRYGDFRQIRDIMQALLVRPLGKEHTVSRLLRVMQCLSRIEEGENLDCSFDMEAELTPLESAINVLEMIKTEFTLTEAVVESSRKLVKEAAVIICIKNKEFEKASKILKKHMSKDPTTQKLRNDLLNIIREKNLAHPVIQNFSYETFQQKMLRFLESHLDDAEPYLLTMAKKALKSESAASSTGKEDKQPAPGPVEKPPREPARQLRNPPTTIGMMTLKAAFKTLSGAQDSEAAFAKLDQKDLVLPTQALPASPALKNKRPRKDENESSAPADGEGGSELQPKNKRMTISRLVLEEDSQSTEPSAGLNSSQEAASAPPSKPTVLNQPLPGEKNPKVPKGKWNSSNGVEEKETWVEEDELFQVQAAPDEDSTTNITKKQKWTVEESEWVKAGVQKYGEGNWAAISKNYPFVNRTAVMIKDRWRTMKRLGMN", "assay": "EMSA"}, "[4]": {"target": "T1, TRF2", "assay": "EMSA", "remark": "listed apart in the source"}, "[5]": {"target": "TRF1 (UniProt P54274 1-439)", "sequence (P54274 whole entry)": "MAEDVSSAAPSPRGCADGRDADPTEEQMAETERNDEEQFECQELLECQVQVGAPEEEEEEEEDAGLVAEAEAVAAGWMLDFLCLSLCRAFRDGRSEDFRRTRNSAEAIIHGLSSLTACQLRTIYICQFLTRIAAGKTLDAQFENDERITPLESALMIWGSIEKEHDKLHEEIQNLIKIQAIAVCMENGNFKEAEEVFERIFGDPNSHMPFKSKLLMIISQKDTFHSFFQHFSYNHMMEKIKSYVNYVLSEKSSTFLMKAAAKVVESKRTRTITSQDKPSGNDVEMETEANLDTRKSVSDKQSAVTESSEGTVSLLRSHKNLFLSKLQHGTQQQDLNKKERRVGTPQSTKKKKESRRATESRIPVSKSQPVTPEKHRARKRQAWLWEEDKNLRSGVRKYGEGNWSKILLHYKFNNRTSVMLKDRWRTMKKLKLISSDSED", "assay": "EMSA"}, "[6]": {"target": "T1, TRF2", "assay": "pull-down, immunoblot"}}, "data": [{"binder": "B1", "values": [{"measurement": "binding result", "setting": "[1]", "value": "binds"}]}, {"binder": "B2", "values": [{"measurement": "binding result", "setting": "[2]", "value": "binds"}, {"measurement": "binding result", "setting": "[3]", "value": "binds"}]}, {"binder": "B3", "values": [{"measurement": "binding result", "setting": "[3]", "value": "binds"}, {"measurement": "binding result", "setting": "[4]", "value": "binds"}, {"measurement": "binding result", "setting": "[5]", "value": "binds"}]}, {"binder": "B4", "values": [{"measurement": "binding result", "setting": "[6]", "value": "binds"}]}]}
